Experimental data: patent US20180142032A1 (Sanofi, published 2018)
“And” between values parts separate entries of the source, which are not always exact repeats. Equal values may be shown once.

How the values were obtained:
[1] = molecular target: T1, cynomolgus monkey LAMP1 at the cell surface (cynomolgus monkey, UniProt P11279 29-417 (human entry)); experiment: flow cytometry, HCT116 stable clones
T1 construct: also called cynoLAMP1; cynomolgus LAMP1
T1 chain: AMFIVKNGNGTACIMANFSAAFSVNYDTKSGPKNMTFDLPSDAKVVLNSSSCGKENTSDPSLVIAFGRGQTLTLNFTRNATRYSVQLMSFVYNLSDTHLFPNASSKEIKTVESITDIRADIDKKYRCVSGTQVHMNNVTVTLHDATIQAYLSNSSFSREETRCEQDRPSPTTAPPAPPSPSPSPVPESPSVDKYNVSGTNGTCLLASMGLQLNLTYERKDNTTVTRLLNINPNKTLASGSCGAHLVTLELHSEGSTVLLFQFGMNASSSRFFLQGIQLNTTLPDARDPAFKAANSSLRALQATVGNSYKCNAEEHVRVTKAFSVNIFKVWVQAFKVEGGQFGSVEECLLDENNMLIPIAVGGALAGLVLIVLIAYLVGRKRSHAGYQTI
Procedure: (§1) 100 μL/well of goat anti-mouse IgG conjugated with Alexa647 (Invitrogen; # A2135) was added for 45 min at 4° C. and washed three times with PBS 1% BSA. The antibody binding was evaluated after centrifugation and re-suspension of cells by adding 200 μl/well PBS 1% BSA and read using Guava® easyCyte™ 8HT Flow Cytometry System. EC50 values were estimated using BIOST@T-SPEED software.

[2] = molecular target: T2, human LAMP1 at the cell surface (human, UniProt P11279 29-417); experiment: flow cytometry, HCT116 stable clones
T2 construct: native on tumour cells (PDX, Colo205, SW480, LS174T) or from the cloned CDS NM_005561.3 in HEK293 and HCT116; signal peptide 1-28 left out; also called huLAMP1; full length human LAMP1
T2 sequence: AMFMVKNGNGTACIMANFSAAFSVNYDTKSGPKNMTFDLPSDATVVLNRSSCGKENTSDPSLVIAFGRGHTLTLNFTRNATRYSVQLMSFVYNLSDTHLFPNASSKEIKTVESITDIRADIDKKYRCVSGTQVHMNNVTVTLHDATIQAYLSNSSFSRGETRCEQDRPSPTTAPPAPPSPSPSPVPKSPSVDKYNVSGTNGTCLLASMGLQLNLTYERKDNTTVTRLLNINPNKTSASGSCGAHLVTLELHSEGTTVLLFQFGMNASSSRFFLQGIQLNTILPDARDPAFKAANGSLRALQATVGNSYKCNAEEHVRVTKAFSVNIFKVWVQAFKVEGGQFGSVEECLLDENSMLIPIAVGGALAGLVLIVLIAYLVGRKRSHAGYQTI
Procedure: as §1

[3] = molecular target: T3, mLAMP1_hseq6-9-11_ΔGYQTI (mouse; human, UniProt P11438 25-369); experiment: flow cytometry, transfected 293-F cells, experiment 2
T3 construct: on cells; numbering read as for pXL6041; also called pXL6092; not shown: murine transmembrane domain and cytoplasmic tail with GYQTI replaced by 5 Ala
T3 chain: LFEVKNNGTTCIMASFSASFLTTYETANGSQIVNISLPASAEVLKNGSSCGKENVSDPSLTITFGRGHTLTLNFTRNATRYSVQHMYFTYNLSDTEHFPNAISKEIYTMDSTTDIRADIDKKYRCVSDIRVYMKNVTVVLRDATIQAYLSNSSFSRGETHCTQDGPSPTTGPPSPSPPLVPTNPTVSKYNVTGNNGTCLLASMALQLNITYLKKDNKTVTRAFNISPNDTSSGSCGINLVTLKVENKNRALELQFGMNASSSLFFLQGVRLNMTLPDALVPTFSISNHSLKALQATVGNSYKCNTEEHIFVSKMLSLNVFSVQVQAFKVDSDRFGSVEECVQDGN

[4] = molecular target: T2, human LAMP1 at the cell surface; experiment: flow cytometry, dissociated CR-IGR-034P colon PDX cells; CR-IGR-034P colon tumor cells
Procedure: Advanced human primary colon tumor CR-IGR-034P was obtained from Patient-derived xenograft in mice. Tumor CR-IGR-034P was enzymatically dissociated using collagenase Type IV (Invitrogen; #17104-019) and deoxyribonuclease I (Invitrogen; #18047-019) for 1 h at 4° C. Cell viability was estimated by Viacount application using Guava® easyCyte™ 8HT Flow Cytometry System. […] 100 μL/well of goat anti-mouse IgG conjugated with Alexa647 (Invitrogen; # A2135) or goat anti-human IgG conjugated with Alexa488 (Invitrogen; # A11013) was added for 45 min at 4° C. and washed three times with PBS 1% BSA. The antibody binding was evaluated after centrifugation and resuspension of cells by adding 200 μl/well PBS 1% BSA and read using Guava® easyCyte™ 8HT Flow Cytometry System. EC50 values were estimated using BIOST@T-SPEED software.

[5] = molecular target: T4, hLAMP1_ΔGYQTI (human, UniProt P11279 29-412); experiment: flow cytometry, transfected 293-F cells, experiment 1
T4 construct: also called pXL5626
T4 sequence: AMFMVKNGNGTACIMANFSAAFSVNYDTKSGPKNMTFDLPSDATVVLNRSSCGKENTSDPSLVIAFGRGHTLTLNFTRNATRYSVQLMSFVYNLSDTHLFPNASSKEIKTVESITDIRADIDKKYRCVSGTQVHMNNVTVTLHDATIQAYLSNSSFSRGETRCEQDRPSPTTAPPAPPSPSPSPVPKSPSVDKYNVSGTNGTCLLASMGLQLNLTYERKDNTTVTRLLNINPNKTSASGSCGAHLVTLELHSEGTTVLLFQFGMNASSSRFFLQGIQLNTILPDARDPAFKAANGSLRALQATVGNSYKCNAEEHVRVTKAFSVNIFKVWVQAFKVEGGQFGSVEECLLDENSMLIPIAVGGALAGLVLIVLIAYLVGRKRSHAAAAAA

[6] = molecular target: T1, cynomolgus monkey LAMP1 at the cell …; experiment: flow cytometry, HEK293 cynoLAMP1 clone 44
[7] = molecular target: T2, human LAMP1 at the cell surface; experiment: cell-based or functional assay
[8] = molecular target: T4, hLAMP1_ΔGYQTI; experiment: flow cytometry, transfected 293-F cells

B1: MAb2 (antibody, mouse IgG1, kappa)
heavy: QVQLQQSAAELARPGASVKMSCKASGYTFTSYTMHWVKQRPGQGLEWIGYFNPSSGYPEYNQKFKDKTTLTADKSSNTAFIQLNSLTSEDSAVYYCSRGYYYGSRGYALDFWGQGASVTVSSAKTTPPSVYPLAPGSAAQTNSMVTLGCLVKGYFPEPVTVTWNSGSLSSGVHTFPAVLQSDLYTLSSSVTVPSSTWPSETVTCNVAHPASSTKVDKKIVPRDCGCKPCICTVPEVSSVFIFPPKPKDVLTITLTPKVTCVVVDISKDDPEVQFSWFVDDVEVHTAQTQPREEQFNSTFRSVSELPIMHQDWLNGKEFKCRVNSAAFPAPIEKTISKTKGRPKAPQVYTIPPPKEQMAKDKVSLTCMITDFFPEDITVEWQWNGQPAENYKNTQPIMDTDGSYFVYSKLNVQKSNWEAGNTFTCSVLHEGLHNHHTEKSLSHSPGK
light: NIVLTQSPVSLAVSLGQRATISCRASESVDINGNTFMHWYQQKPGQSPKLVIYAASNIESGVPARFSGSGSSTDFTFTIDPVEADDVATYYCQQNIEDPWTFGGGTKVEIKRADAAPTVSIFPPSSEQLTSGGASVVCFLNNFYPKDINVKWKIDGSERQNGVLNSWTDQDSKDSTYSMSSTLTLTKDEYERHNSYTCEATHKTSTSPIVKSFNRNEC
notes: murine monoclonal IgG, kappa, from hybridoma; also called murine MAb2
Binder B1 has an EC50 [1] of 6.6 nM and an EC50 [2] of 6.3 nM.

B2: MAb1 (antibody, mouse IgG2a, kappa)
heavy: QVQLQQSGAELVKPGASVKMSCKASGYIFTNYNIHWVKKSPGQGLEWIGAIYPGNGDAPYSQKFKDKATLTADKSSSTTYMQLSRLTSEDSAVYYCVRANWDVAFAYWGQGTLVSVSAAKTTAPSVYPLAPVCGDTTGSSVTLGCLVKGYFPEPVTLTWNSGSLSSGVHTFPAVLQSDLYTLSSSVTVTSSTWPSQSITCNVAHPASSTKVDKKIEPRGPTIKPCPPCKCPAPNLLGGPSVFIFPPKIKDVLMISLSPIVTCVVVDVSEDDPDVQISWFVNNVEVHTAQTQTHREDYNSTLRVVSALPIQHQDWMSGKEFKCKVNNKDLPAPIERTISKPKGSVRAPQVYVLPPPEEEMTKKQVTLTCMVTDFMPEDIYVEWTNNGKTELNYKNTEPVLDSDGSYFMYSKLRVEKKNWVERNSYSCSVVHEGLHNHHTTKSFSRTPGK
light: DIQMTQSPPSLSASLGGKVTITCKASQDIDRYMAWYQDKPGKGPRLLIHDTSTLQPGIPSRFSGSGSGRDYSFSISNLEPEDIATYYCLQYDNLWTFGGGTKLEIKRADAAPTVSIFPPSSEQLTSGGASVVCFLNNFYPKDINVKWKIDGSERQNGVLNSWTDQDSKDSTYSMSSTLTLTKDEYERHNSYTCEATHKTSTSPIVKSFNRNEC
notes: murine monoclonal IgG, kappa, from hybridoma; also called murine MAb1
For B2, the mean fluorescence [3] was 499, the EC50 [4] was 5 nM and the mean fluorescence [5] was 1750.

B3: huMAb1_1 (antibody, human IgG1, kappa)
heavy: not shown
light: DIQMTQSPSSLSASVGDRVTITCKASQDIDRYMAWYQDKPGKAPRLLIHDTSTLQSGVPSRFSGSGSGRDYTLTISNLEPEDFATYYCLQYDNLWTFGGGTKVEIKRTVAAPSVFIFPPSDEQLKSGTASVVCLLNNFYPREAKVQWKVDNALQSGNSQESVTEQDSKDSTYSLSSTLTLSKADYEKHKVYACEVTHQGLSSPVTKSFNRGEC
notes: humanized, VH1-huIgG1 and VL1-huCk
B3 was tested, and the EC50 [6] was 30.1 nM, the “ADCP EC50, 3/1, batch 67130713495” value [7] was 0.47 nM and 0.36 nM and the “ADCP EC50, 3/1, batch 67131354967” value [7] was 0.5 nM. The “ADCP EC50, 3/1, batch 67131617470” value [7] was 0.56 nM, the “ADCP EC50, 6/1, batch 67130713495” value [7] was 0.98 nM and 0.34 nM and the “ADCP EC50, macrophages/target 3/1, batch 67131617438” value [7] was 0.28 nM. It also gave a mean fluorescence [8] of 864.
